Measurements from US20210246166A1 (Bayer, published 2021).
Bridge positions count the residues as written; N and C are the ends. Square brackets hold non-standard residues; d marks the D form. Ends that are not written are not given here. Oic = O=C(O)[C@@H]1C[C@@H]2CCCC[C@@H]2N1; tBuAla = CC(C)(C)C[C@H](N)C(=O)O; 2Pal = N[C@@H](Cc1ccccn1)C(=O)O; Chg = N[C@H](C(=O)O)C1CCCCC1; PEG4 = NCCOCCOCCOCCOCCC(=O)O; Pen = CC(C)(S)[C@H](N)C(=O)O; Tranexamic = tranexamic acid; NMeC = CN[C@@H](CS)C(=O)O; NMeA = CN[C@@H](C)C(=O)O; Dab = NCC[C@H](N)C(=O)O; Abu = CC[C@H](N)C(=O)O; Sar = CNCC(=O)O

T1: Recombinant human MASP1 enzyme (fragment corresponding to amino acids 297-699, C-terminal His Tag) (human, UniProt P48740 297-699)
T1 sequence: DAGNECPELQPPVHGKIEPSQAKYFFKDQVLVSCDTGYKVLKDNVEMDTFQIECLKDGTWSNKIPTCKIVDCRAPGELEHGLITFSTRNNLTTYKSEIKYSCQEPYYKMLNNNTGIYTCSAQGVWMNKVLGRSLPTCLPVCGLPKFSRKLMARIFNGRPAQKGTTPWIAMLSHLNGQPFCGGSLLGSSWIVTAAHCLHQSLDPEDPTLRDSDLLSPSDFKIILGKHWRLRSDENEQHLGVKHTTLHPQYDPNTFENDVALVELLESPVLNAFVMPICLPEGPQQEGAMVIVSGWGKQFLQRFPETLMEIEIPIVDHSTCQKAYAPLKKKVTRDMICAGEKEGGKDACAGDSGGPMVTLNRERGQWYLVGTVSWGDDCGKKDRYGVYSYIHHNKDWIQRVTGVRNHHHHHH


What was measured:
[1] = molecular target: Recombinant human MASP2 enzyme (fragment corresponding to amino acids 297-686, C-terminal His Tag) (human, UniProt O00187 297-686); test: cell-based or functional assay
Chain of Recombinant human MASP2 enzyme (fragment corresponding to amino acids 297-686, C-terminal His Tag) (O00187 other isoform, or with tags, fused parts or gaps limits assumed): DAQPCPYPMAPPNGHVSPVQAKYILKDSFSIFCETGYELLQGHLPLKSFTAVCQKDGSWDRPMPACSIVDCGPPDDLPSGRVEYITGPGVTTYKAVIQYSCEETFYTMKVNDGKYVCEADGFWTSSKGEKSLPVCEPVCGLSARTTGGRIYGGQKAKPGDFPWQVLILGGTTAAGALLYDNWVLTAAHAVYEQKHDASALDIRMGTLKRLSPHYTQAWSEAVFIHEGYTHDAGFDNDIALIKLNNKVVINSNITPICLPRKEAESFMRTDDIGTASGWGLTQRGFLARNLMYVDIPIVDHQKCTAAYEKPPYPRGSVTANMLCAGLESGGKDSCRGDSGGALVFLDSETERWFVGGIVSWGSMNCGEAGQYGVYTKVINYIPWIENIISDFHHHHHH

[2] = molecular target: T1, Recombinant human MASP1 enzyme …; test: cell-based or functional assay

| Binder | human MASP2 IC50 [1] [nM] | human MASP1 IC50 [2] [nM] |
| --- | --- | --- |
| [NMeA]ICSRSLP[Oic]I[Pen]IPQ-OH (disulfide 3-11; N-terminus assumed; SMILES CC[C@H](C)[C@H](NC(=O)[C@H](C)NC)C(=O)N[C@H]1CSSC(C)(C)[C@@H](C(=O)N[C@H](C(=O)N2CCC[C@H]2C(=O)N[C@@H](CCC(N)=O)C(=O)O)[C@@H](C)CC)NC(=O)[C@H]([C@@H](C)CC)NC(=O)[C@@H]2C[C@@H]3CCCC[C@@H]3N2C(=O)[C@@H]2CCCN2C(=O)[C@H](CC(C)C)NC(=O)[C@H](CO)NC(=O)[C@H](CCCNC(=N)N)NC(=O)[C@H](CO)NC1=O) [((N-Me)A)-IC+SRSLP-(Oic)-I-(Pen)+IPQ-OH] | 170 | 4.4 |
| FICSRS[tBuAla]PPI[NMeC]I-NH2 (disulfide 3-11; N-terminus assumed; SMILES CC[C@H](C)[C@H](NC(=O)[C@@H]1CSSC[C@H](NC(=O)[C@@H](NC(=O)[C@@H](N)Cc2ccccc2)[C@@H](C)CC)C(=O)N[C@@H](CO)C(=O)N[C@@H](CCCNC(=N)N)C(=O)N[C@@H](CO)C(=O)N[C@@H](CC(C)(C)C)C(=O)N2CCC[C@H]2C(=O)N2CCC[C@H]2C(=O)N[C@@H]([C@@H](C)CC)C(=O)N1C)C(N)=O) [FIC+SRS-((tBu)A)-PPI-((N-Me)C)+I-NH2] | 170 | 4.5 |
| [Sar]ICSRSLP[Oic]I[Pen]IPD-NH2 (disulfide 3-11; N-terminus assumed; SMILES CC[C@H](C)[C@H](NC(=O)CNC)C(=O)N[C@H]1CSSC(C)(C)[C@@H](C(=O)N[C@H](C(=O)N2CCC[C@H]2C(=O)N[C@@H](CC(=O)O)C(N)=O)[C@@H](C)CC)NC(=O)[C@H]([C@@H](C)CC)NC(=O)[C@@H]2C[C@@H]3CCCC[C@@H]3N2C(=O)[C@@H]2CCCN2C(=O)[C@H](CC(C)C)NC(=O)[C@H](CO)NC(=O)[C@H](CCCNC(=N)N)NC(=O)[C@H](CO)NC1=O) [((N-Me)G)-IC+SRSLP-(Oic)-I-(Pen)+IPD-NH2] | 150 | 4.05 |
| AICSRS[tBuAla]P[(2S,3aS,6aS)‑Octahydrocyclopenta(b)pyrrole‑2‑carboxylic acid]I[NMeC]IPD-NH2 (disulfide 3-11) | 240 | 4.4 |
| [Sar]ICSRSLP[Oic]I[Pen]I[5‑Azaspiro(2.4)heptane‑1‑carboxylic acid]-OH (disulfide 3-11) [((N-Me)G)-IC+SRSLP-(Oic)-I-(Pen)+I-((5-Azaspiro[2.4]heptane-1-carboxylic acid)-OH] | 57 | 4 |
| [Abu]ICSRSLPP[Chg]CIPD-NH2 (disulfide 3-11; N-terminus assumed; SMILES CC[C@H](N)C(=O)N[C@H](C(=O)N[C@H]1CSSC[C@@H](C(=O)N[C@H](C(=O)N2CCC[C@H]2C(=O)N[C@@H](CC(=O)O)C(N)=O)[C@@H](C)CC)NC(=O)[C@H](C2CCCCC2)NC(=O)[C@@H]2CCCN2C(=O)[C@@H]2CCCN2C(=O)[C@H](CC(C)C)NC(=O)[C@H](CO)NC(=O)[C@H](CCCNC(=N)N)NC(=O)[C@H](CO)NC1=O)[C@@H](C)CC) [(Abu)-IC+SRSLPP-(Chg)-C+IPD-NH2] | 52 | 4.25 |
| [Sar]ICSRS[tBuAla]PPI[Pen]IP[PEG4]-NH2 (disulfide 3-11; N-terminus assumed; SMILES CC[C@H](C)[C@H](NC(=O)CNC)C(=O)N[C@H]1CSSC(C)(C)[C@@H](C(=O)N[C@H](C(=O)N2CCC[C@H]2C(=O)NCCOCCOCCOCCOCCC(N)=O)[C@@H](C)CC)NC(=O)[C@H]([C@@H](C)CC)NC(=O)[C@@H]2CCCN2C(=O)[C@@H]2CCCN2C(=O)[C@H](CC(C)(C)C)NC(=O)[C@H](CO)NC(=O)[C@H](CCCNC(=N)N)NC(=O)[C@H](CO)NC1=O) [((N-Me)G)-IC+SRS-((tBu)A)-PPI-(Pen)+IP-(PEG3(16atoms))-NH2] | 65.5 | 4.35 |
| [2Pal]ICSRS[tBuAla]PPI[Pen]IPD-NH2 (disulfide 3-11; N-terminus assumed; SMILES CC[C@H](C)[C@H](NC(=O)[C@@H](N)Cc1ccccn1)C(=O)N[C@H]1CSSC(C)(C)[C@@H](C(=O)N[C@H](C(=O)N2CCC[C@H]2C(=O)N[C@@H](CC(=O)O)C(N)=O)[C@@H](C)CC)NC(=O)[C@H]([C@@H](C)CC)NC(=O)[C@@H]2CCCN2C(=O)[C@@H]2CCCN2C(=O)[C@H](CC(C)(C)C)NC(=O)[C@H](CO)NC(=O)[C@H](CCCNC(=N)N)NC(=O)[C@H](CO)NC1=O) [(2-Pal)-IC+SRS-((tBu)A)-PPI-(Pen)+IPD-NH2] | 68 | 4.4 |
| [Sar]ICSRSLP[Oic]I[Pen]IP-OH (disulfide 3-11; N-terminus assumed; SMILES CC[C@H](C)[C@H](NC(=O)CNC)C(=O)N[C@H]1CSSC(C)(C)[C@@H](C(=O)N[C@H](C(=O)N2CCC[C@H]2C(=O)O)[C@@H](C)CC)NC(=O)[C@H]([C@@H](C)CC)NC(=O)[C@@H]2C[C@@H]3CCCC[C@@H]3N2C(=O)[C@@H]2CCCN2C(=O)[C@H](CC(C)C)NC(=O)[C@H](CO)NC(=O)[C@H](CCCNC(=N)N)NC(=O)[C@H](CO)NC1=O) [((N-Me)G)-IC+SRSLP-(Oic)-I-(Pen)+IP-OH] | 230 | 4.2 |
| [Sar]ICSRSLP[Oic]I[Pen]IPE-NH2 (disulfide 3-11; N-terminus assumed; SMILES CC[C@H](C)[C@H](NC(=O)CNC)C(=O)N[C@H]1CSSC(C)(C)[C@@H](C(=O)N[C@H](C(=O)N2CCC[C@H]2C(=O)N[C@@H](CCC(=O)O)C(N)=O)[C@@H](C)CC)NC(=O)[C@H]([C@@H](C)CC)NC(=O)[C@@H]2C[C@@H]3CCCC[C@@H]3N2C(=O)[C@@H]2CCCN2C(=O)[C@H](CC(C)C)NC(=O)[C@H](CO)NC(=O)[C@H](CCCNC(=N)N)NC(=O)[C@H](CO)NC1=O) [((N-Me)G)-IC+SRSLP-(Oic)-I-(Pen)+IPE-NH2] | 200 | 4.3 |
| AICSRS[tBuAla]P[Oic]I[NMeC]I-OH (disulfide 3-11; N-terminus assumed; SMILES CC[C@H](C)[C@H](NC(=O)[C@@H]1CSSC[C@H](NC(=O)[C@@H](NC(=O)[C@H](C)N)[C@@H](C)CC)C(=O)N[C@@H](CO)C(=O)N[C@@H](CCCNC(=N)N)C(=O)N[C@@H](CO)C(=O)N[C@@H](CC(C)(C)C)C(=O)N2CCC[C@H]2C(=O)N2[C@@H](C[C@@H]3CCCC[C@@H]32)C(=O)N[C@@H]([C@@H](C)CC)C(=O)N1C)C(=O)O) [AIC+SRS-((tBu)A)-P-(Oic)-I-((N-Me)C)+I-OH] | 850 | 4.4 |
| AICSRS[tBuAla]PPI[Pen]IP[Tranexamic]-NH2 (disulfide 3-11) [AIC+SRS-((tBu)A)-PPI-(Pen)+IP-(Tranexamic)-NH2] | 30 | 4.3 |
| AICSRSLPPI[Pen]IPD-NH2 (disulfide 3-11; N-terminus assumed; SMILES CC[C@H](C)[C@H](NC(=O)[C@H](C)N)C(=O)N[C@H]1CSSC(C)(C)[C@@H](C(=O)N[C@H](C(=O)N2CCC[C@H]2C(=O)N[C@@H](CC(=O)O)C(N)=O)[C@@H](C)CC)NC(=O)[C@H]([C@@H](C)CC)NC(=O)[C@@H]2CCCN2C(=O)[C@@H]2CCCN2C(=O)[C@H](CC(C)C)NC(=O)[C@H](CO)NC(=O)[C@H](CCCNC(=N)N)NC(=O)[C@H](CO)NC1=O) [AIC+SRSLPPI-(Pen)+IPD-NH2] | 68 | 4.3 |
| [dA]ICSRSLP[Oic]I[Pen]IP-NH2 (disulfide 3-11; N-terminus assumed; SMILES CC[C@H](C)[C@H](NC(=O)[C@@H](C)N)C(=O)N[C@H]1CSSC(C)(C)[C@@H](C(=O)N[C@H](C(=O)N2CCC[C@H]2C(N)=O)[C@@H](C)CC)NC(=O)[C@H]([C@@H](C)CC)NC(=O)[C@@H]2C[C@@H]3CCCC[C@@H]3N2C(=O)[C@@H]2CCCN2C(=O)[C@H](CC(C)C)NC(=O)[C@H](CO)NC(=O)[C@H](CCCNC(=N)N)NC(=O)[C@H](CO)NC1=O) [aIC+SRSLP-(Oic)-I-(Pen)+IP-NH2] | 59 | 4.3 |
| [Dab]ICSRS[tBuAla]PPI[Pen]IP-NH2 (disulfide 3-11; N-terminus assumed; SMILES CC[C@H](C)[C@H](NC(=O)[C@@H](N)CCN)C(=O)N[C@H]1CSSC(C)(C)[C@@H](C(=O)N[C@H](C(=O)N2CCC[C@H]2C(N)=O)[C@@H](C)CC)NC(=O)[C@H]([C@@H](C)CC)NC(=O)[C@@H]2CCCN2C(=O)[C@@H]2CCCN2C(=O)[C@H](CC(C)(C)C)NC(=O)[C@H](CO)NC(=O)[C@H](CCCNC(=N)N)NC(=O)[C@H](CO)NC1=O) [(Dab)-IC+SRS-((tBu)A)-PPI-(Pen)+IP-NH2] | 64 | 4 |
